Measurements as given in patent US20230340114A1 (IMMUNE ONC THERAPEUTICS, published 2023).

Columns and labels:
[1] = target: T1, flag-tagged cynomolgus monkey LILRB4 expressed on CHO-K1 cells (cynomolgus monkey); test: FACS, CHO-stable cells expressing cyno LILRB4
T1 construct: whole, on cells; also called cyno LILRB4

[2] = target: T2, human LILRB4 expressed on cells (human, UniProt Q8NHJ6 22-448); test: FACS, CHO-stable cells expressing human LILRB4
T2 construct: whole, on cells; also called ILT3; CD85k

[3] = target: T2, human LILRB4 expressed on cells; test: cell-based or functional assay
[4] = target: T3, recombinant human LILRB4 protein (Sino Biological, cat #16742-H08H) (human, UniProt Q8NHJ6 22-259); test: SPR (Biacore 8K), LILRB4 immobilized on CM5 chip, bispecific as analyte, 1:1 model
T3 construct: extracellular domain; also called LILRB4 recombinant protein (Sino Biological); Human LILRB4 ECD-his; not shown: his tag
Experimental: (§1) Binding affinities of first-generation bispecific antibodies to recombinant CD3e-CD3d heterodimer protein (Acro Biosystems) or LILRB4 recombinant protein (Sino Biological) were measured by surface plasmon resonance using a Biacore 8K instrument. Briefly, CD3e-CD3d or LILRB4 protein was immobilized on a CM5 chip with EDC and NHS according to standard protocols. […] The chip was regenerated using 10 mM glycine pH 1.5 as the regeneration buffer. The sensorgrams for reference channel Fc1 and buffer channel were subtracted from the test sensorgrams and the experimental data was fitted by 1:1 binding model.

[5] = target: recombinant CD3e-CD3d heterodimer protein (Acro Biosystems) (UniProt P07766 23-126; P04234 22-105); test: SPR (Biacore 8K), CD3e-CD3d immobilized on CM5 chip, bispecific as analyte, 1:1 model
Experimental: as §1

Sequence of recombinant CD3e-CD3d heterodimer protein (Acro Biosystems) (P07766 23-126 limits assumed, chain 1 of 2): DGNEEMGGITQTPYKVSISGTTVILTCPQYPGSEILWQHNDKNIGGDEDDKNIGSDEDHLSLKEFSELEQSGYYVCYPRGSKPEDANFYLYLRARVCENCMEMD
Sequence of recombinant CD3e-CD3d heterodimer protein (Acro Biosystems) (P04234 22-105 limits assumed, chain 2 of 2): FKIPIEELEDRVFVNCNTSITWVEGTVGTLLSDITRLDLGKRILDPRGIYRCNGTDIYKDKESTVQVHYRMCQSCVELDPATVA

| Binder | EC50 [1] [pM] | EC50 [2] [pM] | Monocyte (max %), Donor 1 [3] [%] | Monocyte (max %), Donor 2 [3] [%] | Monocyte (max %), Donor 3 [3] [%] | Monocyte killing EC50, Donor 1 [3] [pM] | Monocyte killing EC50, Donor 2 [3] [pM] | Monocyte killing EC50, Donor 3 [3] [pM] | T-cell cytotoxicity, THP-1 (max %) [3] [%] | T-cell cytotoxicity, THP-1 EC50 (estimated) [3] [pM] | Kd [4] [pM] | Kd [5] [pM] | T-cell cytotoxicity, THP-1 EC50 [3] [pM] |
| --- | --- | --- | --- | --- | --- | --- | --- | --- | --- | --- | --- | --- | --- |
| H7K3 variant 5, K3m1 (N/V) (antibody, V domains shown) VH: EVQLVESGGGLVQPGGSLRLSCAASGFSLSSSYWISWVRQAPGKGLEWIGSIDSGSVGITYYATWVKGRFTISRDNSKNTLYLQMNSLRAEDTAVYYCARHGDNWALDLWGQGTLVTVSS VL: DIQMTQSPSTLSASVGDRVTITCRASQSIVSWLAWYQQKPGKAPKLLIYKASTLASGVPSRFSGSGSGTEFTLTISSLQPDDFATYYCQHGYIRGDLDNVFGGGTKVEIK | 1230 | 463 | – | – | – | – | – | – | – | – | – | – | – |
| H7K3 variant 12, K3m8 (S/V) (antibody, V domains shown) VH: EVQLVESGGGLVQPGGSLRLSCAASGFSLSSSYWISWVRQAPGKGLEWIGSIDSGSVGITYYATWVKGRFTISRDNSKNTLYLQMNSLRAEDTAVYYCARHGDNWALDLWGQGTLVTVSS VL: DIQMTQSPSTLSASVGDRVTITCRASQSINVWLAWYQQKPGKAPKLLIYKASTLASGVPSRFSGSGSGTEFTLTISSLQPDDFATYYCQHGYIRGDLDNVFGGGTKVEIK | 933 | 402 | – | – | – | – | – | – | – | – | – | – | – |
| H7K3 variant 8, K3m4 (N/Q) (antibody, V domains shown) VH: EVQLVESGGGLVQPGGSLRLSCAASGFSLSSSYWISWVRQAPGKGLEWIGSIDSGSVGITYYATWVKGRFTISRDNSKNTLYLQMNSLRAEDTAVYYCARHGDNWALDLWGQGTLVTVSS VL: DIQMTQSPSTLSASVGDRVTITCRASQSIQSWLAWYQQKPGKAPKLLIYKASTLASGVPSRFSGSGSGTEFTLTISSLQPDDFATYYCQHGYIRGDLDNVFGGGTKVEIK | 989 | 480 | – | – | – | – | – | – | – | – | – | – | – |
| H7K3 variant 11, K3m7 (S/Q) (antibody, V domains shown) VH: EVQLVESGGGLVQPGGSLRLSCAASGFSLSSSYWISWVRQAPGKGLEWIGSIDSGSVGITYYATWVKGRFTISRDNSKNTLYLQMNSLRAEDTAVYYCARHGDNWALDLWGQGTLVTVSS VL: DIQMTQSPSTLSASVGDRVTITCRASQSINQWLAWYQQKPGKAPKLLIYKASTLASGVPSRFSGSGSGTEFTLTISSLQPDDFATYYCQHGYIRGDLDNVFGGGTKVEIK | 974 | 455 | – | – | – | – | – | – | – | – | – | – | – |
| 4ab4ab-3 (bispecific antibody, human IgG1, kappa, L234A L235A, also called first-generation LILRB4/CD3 bispecific antibody No. 4) heavy 1: not shown heavy 2: EVQLVESGGGLVQPGGSLRLSCAASGFSLSSSYWISWVRQAPGKGLEWIGSIDSGSVGITYYATWVKGRFTISRDNSKNTLYLQMNSLRAEDTAVYYCARHGDNWALDLWGQGTLVTVLEDLKNVFPPEVAVFEPSEAEISHTQKATLVCLATGFYPDHVELSWWVNGKEVHSGVCTDPQPLKEQPALQDSRYALSSRLRVSATFWQNPRNHFRCQVQFYGLSENDEWTQDRAKPVTQIVSAEAWGRGGGGSGGGGSEVQLVESGGGLVQPGGSLRLSCAASGFSLSSSYWISWVRQAPGKGLEWIGSIDSGSVGITYYATWVKGRFTISRDNSKNTLYLQMNSLRAEDTAVYYCARHGDNWALDLWGQGTLVTVLEDLKNVFPPEVAVFEPSEAEISHTQKATLVCLATGFYPDHVELSWWVNGKEVHSGVCTDPQPLKEQPALQDSRYALSSRLRVSATFWQNPRNHFRCQVQFYGLSENDEWTQDRAKPVTQIVSAEAWGRASDKTHTCPPCPAPELLGGPSVFLFPPKPKDTLMISRTPEVTCVVVDVSHEDPEVKFNWYVDGVEVHNAKTKPREEQYNSTYRVVSVLTVLHQDWLNGKEYKCKVSNKALPAPIEKTISKAKGQPREPQVCTLPPSREEMTKNQVSLSCAVKGFYPSDIAVEWESNGQPENNYKTTPPVLDSDGSFFLVSKLTVDKSRWQQGNVFSCSVMHEALHNHYTQKSLSLSPG light 1: not shown light 2: DIQMTQSPSTLSASVGDRVTITCRASQSISSWLAWYQQKPGKAPKLLIYKASTLASGVPSRFSGSGSGTEFTLTISSLQPDDFATYYCQHGYIRGDLDNVFGGGTKVEIKPDIQNPDPAVYQLRDSKSSDKSVCLFTDFDSQTQVSQSKDSDVYITDKCVLDMRSMDFKSNSAVAWSQKSDFACANAFQNSIIPEDTFFPSPESS | – | – | 55 | 59 | 54.5 | 1.3 | 0.32 | 2.9 | 98.3 | < 0.01 | 260 | 26800 | – |
| 4ab3-4ab (bispecific antibody, human IgG1, kappa, L234A L235A, also called first-generation LILRB4/CD3 bispecific antibody No. 6) heavy 1: not shown heavy 2: EVQLVESGGGLVQPGGSLRLSCAASGFSLSSSYWISWVRQAPGKGLEWIGSIDSGSVGITYYATWVKGRFTISRDNSKNTLYLQMNSLRAEDTAVYYCARHGDNWALDLWGQGTLVTVLEDLKNVFPPEVAVFEPSEAEISHTQKATLVCLATGFYPDHVELSWWVNGKEVHSGVCTDPQPLKEQPALQDSRYALSSRLRVSATFWQNPRNHFRCQVQFYGLSENDEWTQDRAKPVTQIVSAEAWGRASDKTHTCPPCPAPEAAGGPSVFLFPPKPKDTLMISRTPEVTCVVVDVSHEDPEVKFNWYVDGVEVHNAKTKPREEQYNSTYRVVSVLTVLHQDWLNGKEYKCKVSNKALPAPIEKTISKAKGQPREPQVCTLPPSREEMTKNQVSLSCAVKGFYPSDIAVEWESNGQPENNYKTTPPVLDSDGSFFLVSKLTVDKSRWQQGNVFSCSVMHEALHNHYTQKSLSLSPG light 1: not shown light 2: DIQMTQSPSTLSASVGDRVTITCRASQSISSWLAWYQQKPGKAPKLLIYKASTLASGVPSRFSGSGSGTEFTLTISSLQPDDFATYYCQHGYIRGDLDNVFGGGTKVEIKPDIQNPDPAVYQLRDSKSSDKSVCLFTDFDSQTQVSQSKDSDVYITDKCVLDMRSMDFKSNSAVAWSQKSDFACANAFQNSIIPEDTFFPSPESS | – | – | 29 | 44 | 44 | 0.43 | 0.93 | 1.6 | 98.1 | < 0.01 | 260 | 57300 | – |
| 44-3ab (bispecific antibody, human IgG1, kappa, L234A L235A, also called first-generation LILRB4/CD3 bispecific antibody No. 3) heavy 1: not shown heavy 2: EVQLVESGGGLVQPGGSLRLSCAASGFSLSSSYWISWVRQAPGKGLEWIGSIDSGSVGITYYATWVKGRFTISRDNSKNTLYLQMNSLRAEDTAVYYCARHGDNWALDLWGQGTLVTVSSASTKGPSVFPLAPSSKSTSGGTAALGCLVKDYFPEPVTVSWNSGALTSGVHTFPAVLQSSGLYSLSSVVTVPSSSLGTQTYICNVNHKPSNTKVDKRVEPKSCGGGGSGGGGSEVQLVESGGGLVQPGGSLRLSCAASGFSLSSSYWISWVRQAPGKGLEWIGSIDSGSVGITYYATWVKGRFTISRDNSKNTLYLQMNSLRAEDTAVYYCARHGDNWALDLWGQGTLVTVSSASTKGPSVFPLAPSSKSTSGGTAALGCLVKDYFPEPVTVSWNSGALTSGVHTFPAVLQSSGLYSLSSVVTVPSSSLGTQTYICNVNHKPSNTKVDKRVEPKSCDKTHTCPPCPAPEAAGGPSVFLFPPKPKDTLMISRTPEVTCVVVDVSHEDPEVKFNWYVDGVEVHNAKTKPREEQYNSTYRVVSVLTVLHQDWLNGKEYKCKVSNKALPAPIEKTISKAKGQPREPQVCTLPPSREEMTKNQVSLSCAVKGFYPSDIAVEWESNGQPENNYKTTPPVLDSDGSFFLVSKLTVDKSRWQQGNVFSCSVMHEALHNHYTQKSLSLSPG light 1: DIVMTQSPDSLAVSLGERATINCKSSQSLLNSRTRKNYLAWYQQKPGQPPKLLIYWASTRQSGVPDRFSGSGSGTDFTLTISSLQAEDVAVYYCTQSHTLRTFGGGTKVEIKPDIQNPDPAVYQLRDSKSSDKSVCLFTDFDSQTQVSQSKDSDVYITDKCVLDMRSMDFKSNSAVAWSQKSDFACANAFQNSIIPEDTFFPSPESS light 2: DIQMTQSPSTLSASVGDRVTITCRASQSISSWLAWYQQKPGKAPKLLIYKASTLASGVPSRFSGSGSGTEFTLTISSLQPDDFATYYCQHGYIRGDLDNVFGGGTKVEIKRTVAAPSVFIFPPSDEQLKSGTASVVCLLNNFYPREAKVQWKVDNALQSGNSQESVTEQDSKDSTYSLSSTLTLSKADYEKHKVYACEVTHQGLSSPVTKSFNRGEC | – | – | 39 | 30 | 0 | – | 3.4 | – | 96.4 | – | 230 | 42100 | 0.43 |
| 43ab-4 (bispecific antibody, human IgG1, kappa, L234A L235A, also called first-generation LILRB4/CD3 bispecific antibody No. 5) heavy 1: not shown heavy 2: EVQLVESGGGLVQPGGSLRLSCAASGFSLSSSYWISWVRQAPGKGLEWIGSIDSGSVGITYYATWVKGRFTISRDNSKNTLYLQMNSLRAEDTAVYYCARHGDNWALDLWGQGTLVTVSSASTKGPSVFPLAPSSKSTSGGTAALGCLVKDYFPEPVTVSWNSGALTSGVHTFPAVLQSSGLYSLSSVVTVPSSSLGTQTYICNVNHKPSNTKVDKRVEPKSCDKTHTCPPCPAPEAAGGPSVFLFPPKPKDTLMISRTPEVTCVVVDVSHEDPEVKFNWYVDGVEVHNAKTKPREEQYNSTYRVVSVLTVLHQDWLNGKEYKCKVSNKALPAPIEKTISKAKGQPREPQVCTLPPSREEMTKNQVSLSCAVKGFYPSDIAVEWESNGQPENNYKTTPPVLDSDGSFFLVSKLTVDKSRWQQGNVFSCSVMHEALHNHYTQKSLSLSPG light 1: DIVMTQSPDSLAVSLGERATINCKSSQSLLNSRTRKNYLAWYQQKPGQPPKLLIYWASTRQSGVPDRFSGSGSGTDFTLTISSLQAEDVAVYYCTQSHTLRTFGGGTKVEIKPDIQNPDPAVYQLRDSKSSDKSVCLFTDFDSQTQVSQSKDSDVYITDKCVLDMRSMDFKSNSAVAWSQKSDFACANAFQNSIIPEDTFFPSPESS light 2: DIQMTQSPSTLSASVGDRVTITCRASQSISSWLAWYQQKPGKAPKLLIYKASTLASGVPSRFSGSGSGTEFTLTISSLQPDDFATYYCQHGYIRGDLDNVFGGGTKVEIKRTVAAPSVFIFPPSDEQLKSGTASVVCLLNNFYPREAKVQWKVDNALQSGNSQESVTEQDSKDSTYSLSSTLTLSKADYEKHKVYACEVTHQGLSSPVTKSFNRGEC | – | – | 45 | 0 | 42 | 0.19 | – | 0.084 | 98.7 | < 0.01 | 290 | 47000 | – |
